In the supplement of paper PMC10065799, “High-throughput profiling of sequence recognition by tyrosine kinases and SH2 domains using bacterial peptide display” (eLife, 2023):

Tests used:
SHP2-C SH2 = experiment: SH2 binding enrichment of the phosphorylated peptide, bacterial display (enrichment ratio); higher = better substrate or ligand; peptides without Tyr show the background
Grb2 SH2 = Grb2 SH2 (UniProt P62993); experiment: as above
c-Src SH2 = experiment: as above
AncSZ = experiment: phosphorylation enrichment, bacterial display (enrichment ratio); higher = better substrate or ligand; peptides without Tyr show the background
c-Src = experiment: as above
FGFR3 = FGFR3 (UniProt P22607); experiment: as above
FGFR3, sequence (P22607 whole entry, looked up): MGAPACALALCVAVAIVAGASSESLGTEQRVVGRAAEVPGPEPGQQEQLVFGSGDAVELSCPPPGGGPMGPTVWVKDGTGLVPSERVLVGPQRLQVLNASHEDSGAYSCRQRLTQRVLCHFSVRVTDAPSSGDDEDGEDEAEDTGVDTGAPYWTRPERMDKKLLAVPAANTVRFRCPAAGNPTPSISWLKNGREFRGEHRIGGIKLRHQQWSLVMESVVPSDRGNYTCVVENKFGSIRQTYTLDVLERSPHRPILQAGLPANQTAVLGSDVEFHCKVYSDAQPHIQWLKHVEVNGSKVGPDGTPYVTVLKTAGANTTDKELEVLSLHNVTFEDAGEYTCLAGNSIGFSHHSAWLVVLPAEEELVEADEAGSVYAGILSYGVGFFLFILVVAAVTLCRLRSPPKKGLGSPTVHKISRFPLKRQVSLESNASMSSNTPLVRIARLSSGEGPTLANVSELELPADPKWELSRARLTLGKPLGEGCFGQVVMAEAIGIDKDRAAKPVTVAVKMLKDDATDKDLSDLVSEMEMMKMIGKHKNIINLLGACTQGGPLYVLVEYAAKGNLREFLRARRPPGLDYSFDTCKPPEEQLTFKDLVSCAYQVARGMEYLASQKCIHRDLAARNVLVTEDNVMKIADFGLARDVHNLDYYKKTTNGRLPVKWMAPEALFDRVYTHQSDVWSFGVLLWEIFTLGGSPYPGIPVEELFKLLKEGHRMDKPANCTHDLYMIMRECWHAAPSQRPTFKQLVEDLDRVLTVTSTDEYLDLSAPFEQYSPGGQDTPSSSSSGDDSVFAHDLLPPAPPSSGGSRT

EPHB1 = EPHB1 (UniProt P54762); experiment: as above
EPHB1, sequence (P54762 whole entry, looked up): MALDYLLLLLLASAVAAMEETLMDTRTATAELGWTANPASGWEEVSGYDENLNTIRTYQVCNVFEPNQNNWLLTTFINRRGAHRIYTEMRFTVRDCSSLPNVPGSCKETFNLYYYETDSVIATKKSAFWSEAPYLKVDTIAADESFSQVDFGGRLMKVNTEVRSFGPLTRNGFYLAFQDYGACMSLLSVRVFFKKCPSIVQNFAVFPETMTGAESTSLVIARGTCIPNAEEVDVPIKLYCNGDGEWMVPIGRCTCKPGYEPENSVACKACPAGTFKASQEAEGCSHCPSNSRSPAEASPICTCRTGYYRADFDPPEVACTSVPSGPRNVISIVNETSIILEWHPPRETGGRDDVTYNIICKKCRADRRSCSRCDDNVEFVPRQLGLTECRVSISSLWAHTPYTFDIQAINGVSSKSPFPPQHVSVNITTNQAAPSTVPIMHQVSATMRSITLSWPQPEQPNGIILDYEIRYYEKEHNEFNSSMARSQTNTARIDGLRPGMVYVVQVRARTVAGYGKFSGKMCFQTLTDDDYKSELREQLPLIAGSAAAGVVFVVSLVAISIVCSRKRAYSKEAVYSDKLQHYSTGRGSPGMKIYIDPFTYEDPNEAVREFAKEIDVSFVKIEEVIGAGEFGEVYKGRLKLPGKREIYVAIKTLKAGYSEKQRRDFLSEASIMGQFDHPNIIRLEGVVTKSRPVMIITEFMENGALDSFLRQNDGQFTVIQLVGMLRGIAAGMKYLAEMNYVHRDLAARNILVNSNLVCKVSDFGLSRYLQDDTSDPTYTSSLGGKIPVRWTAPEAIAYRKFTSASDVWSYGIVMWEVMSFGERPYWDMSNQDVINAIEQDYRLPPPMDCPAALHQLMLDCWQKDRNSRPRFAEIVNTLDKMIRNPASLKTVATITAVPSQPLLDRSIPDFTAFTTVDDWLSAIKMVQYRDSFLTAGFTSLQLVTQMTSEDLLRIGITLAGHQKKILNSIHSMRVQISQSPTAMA

EPHB2 = EPHB2 (UniProt P29323); experiment: as above
Hck = Hck (UniProt P08631); experiment: as above
MERTK = MERTK (UniProt Q12866); experiment: as above
MERTK, sequence (Q12866 whole entry, looked up): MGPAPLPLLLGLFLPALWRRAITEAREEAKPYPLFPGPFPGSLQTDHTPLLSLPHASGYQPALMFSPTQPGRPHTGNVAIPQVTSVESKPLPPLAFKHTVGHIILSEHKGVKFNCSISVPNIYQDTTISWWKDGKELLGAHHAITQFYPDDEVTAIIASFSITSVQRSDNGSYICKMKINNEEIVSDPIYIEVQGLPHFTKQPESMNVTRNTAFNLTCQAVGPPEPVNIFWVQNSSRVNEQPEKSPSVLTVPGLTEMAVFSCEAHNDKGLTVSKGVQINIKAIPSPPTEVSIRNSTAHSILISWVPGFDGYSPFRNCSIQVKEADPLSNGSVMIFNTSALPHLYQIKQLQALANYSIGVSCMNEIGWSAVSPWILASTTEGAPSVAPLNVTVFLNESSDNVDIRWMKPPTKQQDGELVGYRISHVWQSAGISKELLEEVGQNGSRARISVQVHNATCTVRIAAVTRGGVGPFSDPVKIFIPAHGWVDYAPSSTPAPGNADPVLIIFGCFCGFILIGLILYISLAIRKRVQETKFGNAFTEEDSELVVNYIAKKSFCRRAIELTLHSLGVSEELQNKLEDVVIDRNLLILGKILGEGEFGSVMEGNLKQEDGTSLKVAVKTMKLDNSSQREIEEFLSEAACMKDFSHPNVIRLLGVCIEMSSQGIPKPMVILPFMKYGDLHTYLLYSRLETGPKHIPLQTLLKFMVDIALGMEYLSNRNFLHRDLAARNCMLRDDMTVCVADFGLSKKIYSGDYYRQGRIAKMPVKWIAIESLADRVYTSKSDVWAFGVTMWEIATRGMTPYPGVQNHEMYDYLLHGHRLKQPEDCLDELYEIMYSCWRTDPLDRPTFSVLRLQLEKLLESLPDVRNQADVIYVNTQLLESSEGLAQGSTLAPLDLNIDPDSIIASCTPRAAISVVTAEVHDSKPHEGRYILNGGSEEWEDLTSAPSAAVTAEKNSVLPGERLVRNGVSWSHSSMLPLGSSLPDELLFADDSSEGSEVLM

Fyn = Fyn (UniProt P06241); experiment: as above
Fyn, sequence (P06241 whole entry, looked up): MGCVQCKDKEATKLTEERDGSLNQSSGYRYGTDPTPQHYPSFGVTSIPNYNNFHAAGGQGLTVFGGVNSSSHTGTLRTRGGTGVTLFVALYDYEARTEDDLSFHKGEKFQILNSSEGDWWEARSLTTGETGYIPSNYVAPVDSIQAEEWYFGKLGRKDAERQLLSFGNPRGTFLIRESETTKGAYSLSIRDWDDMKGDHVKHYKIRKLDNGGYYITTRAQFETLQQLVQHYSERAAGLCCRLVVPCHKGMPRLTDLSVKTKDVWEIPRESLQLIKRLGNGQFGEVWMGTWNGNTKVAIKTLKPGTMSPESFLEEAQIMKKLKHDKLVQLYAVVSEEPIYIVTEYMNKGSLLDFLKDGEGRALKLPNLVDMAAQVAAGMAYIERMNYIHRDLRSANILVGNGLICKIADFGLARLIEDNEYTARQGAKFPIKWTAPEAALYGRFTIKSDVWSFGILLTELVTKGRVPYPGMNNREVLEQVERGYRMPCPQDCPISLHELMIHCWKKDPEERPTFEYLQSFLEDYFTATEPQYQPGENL

Jak2 = Jak2 (UniProt O60674); experiment: as above
Fes = Fes (UniProt P07332); experiment: as above
Fes, sequence (P07332 whole entry, looked up): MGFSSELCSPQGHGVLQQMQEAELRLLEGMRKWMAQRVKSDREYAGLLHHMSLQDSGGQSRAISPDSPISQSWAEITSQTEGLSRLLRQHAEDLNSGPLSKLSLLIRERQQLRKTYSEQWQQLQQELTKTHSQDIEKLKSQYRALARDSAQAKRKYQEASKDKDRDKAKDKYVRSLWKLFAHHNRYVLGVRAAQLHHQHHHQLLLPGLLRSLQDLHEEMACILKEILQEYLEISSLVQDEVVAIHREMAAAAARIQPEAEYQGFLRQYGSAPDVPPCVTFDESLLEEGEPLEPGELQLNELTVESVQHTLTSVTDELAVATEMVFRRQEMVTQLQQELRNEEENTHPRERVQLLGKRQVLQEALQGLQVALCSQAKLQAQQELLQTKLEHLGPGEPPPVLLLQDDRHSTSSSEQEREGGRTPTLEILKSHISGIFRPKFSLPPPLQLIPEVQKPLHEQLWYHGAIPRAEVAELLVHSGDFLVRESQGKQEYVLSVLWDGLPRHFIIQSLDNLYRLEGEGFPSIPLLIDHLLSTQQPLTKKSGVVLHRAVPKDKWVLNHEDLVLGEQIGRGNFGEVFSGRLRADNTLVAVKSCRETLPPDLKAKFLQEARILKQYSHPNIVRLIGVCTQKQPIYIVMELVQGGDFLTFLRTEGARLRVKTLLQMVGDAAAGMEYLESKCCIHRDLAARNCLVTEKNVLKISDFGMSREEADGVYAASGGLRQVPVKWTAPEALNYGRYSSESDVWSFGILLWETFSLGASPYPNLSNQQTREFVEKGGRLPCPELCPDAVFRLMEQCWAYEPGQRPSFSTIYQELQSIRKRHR

FGFR1 = FGFR1 (UniProt P11362); experiment: as above
FGFR1, sequence (P11362 whole entry, looked up): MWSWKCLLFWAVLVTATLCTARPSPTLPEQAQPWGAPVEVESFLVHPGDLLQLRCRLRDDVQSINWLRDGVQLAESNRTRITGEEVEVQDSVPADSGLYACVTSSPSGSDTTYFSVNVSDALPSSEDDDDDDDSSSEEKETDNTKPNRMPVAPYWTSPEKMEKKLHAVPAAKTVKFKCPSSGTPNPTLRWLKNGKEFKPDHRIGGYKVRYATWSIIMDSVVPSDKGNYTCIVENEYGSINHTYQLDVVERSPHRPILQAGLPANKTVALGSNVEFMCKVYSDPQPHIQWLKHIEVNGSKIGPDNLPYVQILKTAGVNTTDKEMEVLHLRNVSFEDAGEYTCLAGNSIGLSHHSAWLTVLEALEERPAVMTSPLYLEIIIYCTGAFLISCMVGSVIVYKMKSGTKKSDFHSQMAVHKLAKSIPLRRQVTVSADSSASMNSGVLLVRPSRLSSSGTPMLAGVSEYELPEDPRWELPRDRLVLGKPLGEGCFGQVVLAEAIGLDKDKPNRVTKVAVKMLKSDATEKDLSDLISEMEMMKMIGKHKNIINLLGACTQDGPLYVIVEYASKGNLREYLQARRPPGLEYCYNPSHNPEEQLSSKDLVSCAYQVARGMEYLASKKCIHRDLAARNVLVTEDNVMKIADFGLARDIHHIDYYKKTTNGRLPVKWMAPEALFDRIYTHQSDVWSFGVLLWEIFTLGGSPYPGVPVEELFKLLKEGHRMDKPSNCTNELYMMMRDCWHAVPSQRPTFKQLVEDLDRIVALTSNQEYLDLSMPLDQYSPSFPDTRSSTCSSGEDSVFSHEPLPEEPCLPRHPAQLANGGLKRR

Fer (mouse) = experiment: as above
c-Abl (mouse) = experiment: as above
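Wherever SH2 binding enrichment of the phosphorylated peptide, bacterial display is given: peptide library displayed on the E. coli surface as eCPX fusions, selected cells deep-sequenced, score is each peptide's frequency after selection divided by its frequency in the input.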
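Wherever phosphorylation enrichment, bacterial display is given: 11-residue human phosphosite peptides and single-mutation variants displayed on the E. coli surface, counted by deep sequencing, each peptide's frequency after selection divided by its frequency in the unselected input library; frequency after pTyr selection over input frequency; kinase dosed for 20-30% of maximal phosphorylation in three min.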

Row | SH2 binding enrichment (SHP2-C SH2) | SH2 binding enrichment (Grb2 SH2) | SH2 binding enrichment (c-Src SH2) | Sequence | phosphorylation enrichment (AncSZ) | phosphorylation enrichment (c-Src) | phosphorylation enrichment (FGFR3) | phosphorylation enrichment (EPHB1) | phosphorylation enrichment (EPHB2) | phosphorylation enrichment (Hck) | phosphorylation enrichment (MERTK) | phosphorylation enrichment (Fyn) | phosphorylation enrichment (Jak2) | phosphorylation enrichment (Fes) | phosphorylation enrichment (FGFR1) | phosphorylation enrichment (Fer (mouse)) | phosphorylation enrichment (c-Abl (mouse))
1 | 0.745 | 0.677 | 0.555 | GGYTCYSDGKK [PROS1_Y266_C267S] | 1.13 | 0.516 | 0.826 | 0.677 | 0.561 | 0.499 | 0.441 | 0.458 | 1.01 | 1.22 | 0.592 | 0.593 | 0.908
2 | 0.741 | 0.92 | 0.399 | GHEFIYVDRMQ [PDGFRB_Y581_P584R_YF] | 0.777 | 2.02 | 0.624 | 0.47 | 0.685 | 1.11 | 0.479 | 1.42 | 0.541 | 0.836 | 0.555 | 0.382 | 0.651
3 | 1.43 | 1.66 | 1.56 | GHLFAYDWIRI [BEST1_Y227_S231R_YF] | 1 | 0.941 | 1.22 | 0.787 | 0.641 | 1.6 | 4.78 | 0.673 | 0.867 | 1.51 | 1.68 | 12.5 | 0.674
4 | 0.783 | 0.859 | 0.429 | GIVEDYRPPLY [ACVRL1_Y421_F425L] | 0.727 | 0.412 | 0.608 | 0.382 | 0.482 | 0.382 | 0.393 | 0.455 | 0.675 | 0.918 | 0.387 | 0.399 | 0.59
5 | 0.717 | 0.697 | 0.51 | GIYEDYVEGLR [MYL6_Y89_T85I] | 1.49 | 4.26 | 0.86 | 5.82 | 6.61 | 3.65 | 1.42 | 6.03 | 0.946 | 1.45 | 0.965 | 6.33 | 0.727
6 | 1.31 | 1.13 | 1.03 | GIYKDYYRYNF [PLA2G2D_Y85_S80G] | 1.4 | 4.78 | 9.59 | 5.44 | 5.13 | 3.32 | 4.72 | 5 | 7.91 | 0.805 | 12.2 | 0.938 | 5.76
7 | 1.51 | 1.13 | 0.982 | GKMSSYAFFVQ [HMGB1_Y16] | 1.01 | 0.562 | 0.741 | 0.809 | 0.711 | 0.513 | 1.29 | 0.505 | 1.01 | 1.14 | 0.603 | 0.474 | 0.849
8 | 1 | 0.893 | 0.685 | GKSFIYAAFHA [KCNT1_Y563_T562I] | 1.18 | 3.84 | 0.805 | 0.787 | 0.522 | 2.83 | 1.72 | 4.67 | 1.32 | 1.25 | 0.452 | 0.672 | 2.75
9 | 0.527 | 0.855 | 0.41 | GKSFTYAAFHA [KCNT1_Y563] | 0.849 | 5.91 | 0.583 | 0.603 | 0.613 | 4.03 | 0.819 | 5.65 | 0.826 | 0.812 | 0.51 | 0.454 | 0.654
10 | 0.64 | 0.908 | 0.476 | GLDSSYLLRDS [SH2D1A_Y29_G27S] | 0.477 | 0.386 | 0.426 | 0.343 | 0.36 | 0.323 | 0.422 | 0.386 | 0.464 | 0.612 | 0.613 | 0.305 | 0.434
11 | 0.655 | 0.878 | 0.608 | GLSSAYGDLTS [KRT8_Y427_G429D] | 0.718 | 0.464 | 0.486 | 0.56 | 0.429 | 0.535 | 0.413 | 0.454 | 0.535 | 0.659 | 0.506 | 0.479 | 0.536
12 | 0.831 | 0.918 | 0.521 | GQECEYPPTQD [METAP2_Y137] | 1.34 | 0.563 | 0.852 | 0.866 | 0.67 | 0.63 | 0.525 | 0.534 | 1.24 | 1.41 | 0.584 | 0.609 | 1.06
13 | 0.549 | 0.788 | 0.471 | GQKVAYGGTED [ALDH3A1_Y305_G309E] | 0.747 | 0.412 | 0.63 | 0.424 | 0.471 | 0.402 | 0.417 | 0.438 | 0.791 | 0.939 | 0.412 | 0.344 | 0.577
14 | 0.648 | 0.87 | 0.513 | GRGMPYGGRGD [TGM1_Y312_R307G] | 0.476 | 0.402 | 0.449 | 0.338 | 0.325 | 0.4 | 0.379 | 0.343 | 0.488 | 0.476 | 0.355 | 0.399 | 0.513
15 | 1.99 | 1.85 | 1.61 | GRIHSYRGHLW [VHL_Y112_R107G] | 0.585 | 0.347 | 0.438 | 0.387 | 0.392 | 0.359 | 0.357 | 0.38 | 0.535 | 0.712 | 0.363 | 0.373 | 0.51
16 | 0.613 | 0.812 | 0.845 | GRLVEYDIDEV [SMS_Y134] | 1.28 | 0.563 | 0.771 | 0.709 | 1.05 | 0.549 | 0.489 | 0.508 | 1.45 | 1.48 | 0.494 | 0.658 | 0.902
17 | 0.85 | 0.803 | 0.527 | GRPLFYWLTGC [LYZL6_Y140] | 0.968 | 0.33 | 0.836 | 0.686 | 0.491 | 0.42 | 0.469 | 0.407 | 1.04 | 1.13 | 0.533 | 0.418 | 0.713

Row | SH2 binding enrichment (SHP2-C SH2) | SH2 binding enrichment (Grb2 SH2) | SH2 binding enrichment (c-Src SH2) | Sequence | phosphorylation enrichment (AncSZ) | phosphorylation enrichment (c-Src) | phosphorylation enrichment (FGFR3) | phosphorylation enrichment (EPHB1) | phosphorylation enrichment (EPHB2) | phosphorylation enrichment (Hck) | phosphorylation enrichment (MERTK) | phosphorylation enrichment (Fyn) | phosphorylation enrichment (Jak2) | phosphorylation enrichment (Fes) | phosphorylation enrichment (FGFR1) | phosphorylation enrichment (Fer (mouse)) | phosphorylation enrichment (c-Abl (mouse))
18 | 0.681 | 0.763 | 0.464 | GRPLSYWLTGC [LYZL6_Y140_F139S] | 1.12 | 0.397 | 0.793 | 0.686 | 0.664 | 0.503 | 0.411 | 0.527 | 1.24 | 1.33 | 0.535 | 0.556 | 0.846
19 | 0.681 | 0.729 | 0.558 | GRQVIYTENER [GPR143_Y231_G229V] | 0.531 | 0.513 | 0.479 | 0.441 | 0.41 | 0.462 | 0.43 | 0.407 | 0.552 | 0.89 | 0.435 | 0.382 | 0.537
20 | 0.528 | 0.696 | 0.356 | GRRNTYFASIA [ACADM_Y352_YF] | 0.722 | 0.615 | 0.507 | 0.346 | 0.423 | 0.423 | 0.466 | 0.551 | 0.5 | 0.556 | 0.439 | 0.481 | 0.588
21 | 0.55 | 0.874 | 0.455 | GSESDYIVMPN [SCARB1_Y133] | 2.88 | 0.63 | 3.84 | 8.5 | 8.31 | 0.527 | 0.538 | 0.575 | 1.03 | 1.04 | 5.92 | 0.455 | 0.752
22 | 0.713 | 1.06 | 0.915 | GSRGKCSSGFR [ATM_Y332_Y332C] | 0.471 | 0.387 | 0.423 | 0.41 | 0.379 | 0.464 | 0.411 | 0.395 | 0.532 | 0.558 | 0.403 | 0.433 | 0.709
23 | 0.875 | 0.982 | 0.553 | GSSSSCGQHGS [HRNR_Y517_Y517C] | 0.556 | 0.283 | 0.522 | 0.342 | 0.311 | 0.333 | 0.294 | 0.4 | 0.448 | 0.622 | 0.363 | 0.38 | 0.411
24 | 0.812 | 1.15 | 0.442 | GTFVIYVRFSG [FLNB_Y1687_G1691S_YF] | 1.17 | 0.539 | 0.569 | 0.572 | 0.468 | 0.454 | 0.472 | 0.426 | 1.14 | 1.4 | 0.406 | 0.443 | 0.979
25 | 0.623 | 0.732 | 0.439 | GTVRDYPDFSP [ANXA3_Y15] | 0.759 | 0.372 | 0.587 | 0.44 | 0.559 | 0.49 | 0.364 | 0.444 | 0.702 | 0.79 | 0.508 | 0.395 | 0.532
26 | 0.612 | 0.674 | 1.78 | GVFSRHFTTFD [CLCA1_Y661_Y661H_YF] | 1.31 | 0.184 | 0.814 | 0.953 | 1.1 | 1.03 | 0.166 | 0.48 | 0.483 | 1.05 | 0.644 | 0.946 | 0.346
27 | 0.666 | 0.716 | 0.573 | GVPLGYPIKAP [ELN_Y206] | 0.563 | 0.427 | 0.399 | 0.323 | 0.388 | 0.388 | 0.419 | 0.384 | 0.534 | 0.573 | 0.462 | 0.45 | 0.485
28 | 0.545 | 0.87 | 0.475 | GVRFTYTIDGS [DCX_Y105_I104T_YF] | 1.26 | 0.435 | 0.729 | 0.458 | 0.67 | 0.496 | 0.423 | 0.426 | 1.24 | 1.33 | 0.601 | 0.384 | 0.715
29 | 0.873 | 0.965 | 0.722 | HDRREYSRFEK [ITGB7_Y758_Y753H] | 0.743 | 0.53 | 0.718 | 0.754 | 0.373 | 0.524 | 0.445 | 0.317 | 0.647 | 0.973 | 0.585 | 0.731 | 0.887
30 | 0.633 | 0.82 | 0.371 | HEGKIYEFNQV [ZNF665_Y162_YF] | 0.796 | 4.38 | 0.929 | 0.883 | 1.17 | 1.64 | 4.13 | 6.98 | 0.468 | 0.975 | 0.665 | 22.6 | 1.6
31 | 0.587 | 0.586 | 0.326 | HFNLTYRILSF [MMP23B_Y95] | 1.6 | 0.636 | 1.19 | 0.826 | 0.615 | 0.644 | 0.481 | 0.391 | 1.8 | 1.8 | 0.486 | 0.726 | 1.47
32 | 0.666 | 0.786 | 0.575 | HFVDEYDPTIE [KRAS_Y32] | 1.74 | 0.779 | 0.888 | 0.784 | 0.99 | 0.828 | 0.724 | 0.605 | 1.54 | 1.79 | 0.884 | 0.886 | 1.33
33 | 0.448 | 0.802 | 0.717 | HFVDEYDPTME [KRAS_Y32_I36M] | 1.5 | 0.634 | 0.633 | 0.727 | 0.437 | 0.702 | 0.66 | 0.614 | 1.33 | 1.49 | 0.424 | 1.11 | 1.31
